Results as given in patent US20230374072A1 (priority 2020, published 2023).

Test system: TNF expression in HUVEC cell culture

## Gly-Asp-Cys-Pro-Pro-Trp-Cys-Gly-Ala-Arg-Cys-(XXX)-Cys [SEQ ID NO:1 scaffolding protein]
  toxic activity (activity of the toxin): does not present any type of toxic activity
